Experiments:
Assay in all cases: cell-based or functional assay
[1] = molecular target: HIV-1 Env of isolate QH0692.42 (HIV-1)
[2] = molecular target: HIV-1 Env of isolate MGRM-F1-008 (HIV-1)
[3] = molecular target: HIV-1 Env of isolate MGRM-D-024 (HIV-1)
[4] = molecular target: HIV-1 Env of isolate MGRM-D-011 (HIV-1)
[5] = molecular target: HIV-1 Env of isolate JRCSF (HIV-1) (UniProt P20871)
[6] = molecular target: HIV-1 Env of isolate MGRM-F1-023 (HIV-1)
[7] = molecular target: HIV-1 Env of isolate MGRM-F1-016 (HIV-1)
[8] = molecular target: HIV-1 Env of isolate MGRM-D-020 (HIV-1)
[9] = molecular target: HIV-1 Env of isolate MGRM-D-016 (HIV-1)
[10] = molecular target: HIV-1 Env of isolate PVO.4 (HIV-1)
[11] = molecular target: HIV-1 Env of isolate MGRM-Chronic-B-012 (HIV-1)
[12] = molecular target: HIV-1 Env of isolate MGRM-F1-018 (HIV-1)
[13] = molecular target: HIV-1 Env of isolate MGRM-D-021 (HIV-1)
[14] = molecular target: HIV-1 Env of isolate MGRM-F1-013 (HIV-1)
[15] = molecular target: HIV-1 Env of isolate MGRM-D-019 (HIV-1)
[16] = molecular target: HIV-1 Env of isolate MGRM-Chronic-B-018 (HIV-1)
[17] = molecular target: HIV-1 Env of isolate MGRM-D-014 (HIV-1)
[18] = molecular target: HIV-1 Env of isolate MGRM-F1-015 (HIV-1)
[19] = molecular target: HIV-1 Env of isolate 93IN905 (HIV-1)
[20] = molecular target: HIV-1 Env of isolate MGRM-D-013 (HIV-1)
[21] = molecular target: HIV-1 Env of isolate MGRM-F1-022 (HIV-1)
[22] = molecular target: HIV-1 Env of isolate 98IN022 (HIV-1)
[23] = molecular target: HIV-1 Env of isolate TRJ04551.58 (HIV-1)
[24] = molecular target: HIV-1 Env of isolate MGRM-Chronic-B-020 (HIV-1)
[25] = molecular target: HIV-1 Env of isolate MGRM-F1-004 (HIV-1)
[26] = molecular target: HIV-1 Env of isolate 97ZA012 (HIV-1)
[27] = molecular target: HIV-1 Env of isolate MGRM-D-012 (HIV-1)
[28] = molecular target: HIV-1 Env of isolate SC422661.8 (HIV-1)
[29] = molecular target: HIV-1 Env of isolate THR0.18 (HIV-1)
[30] = molecular target: HIV-1 Env of isolate MGRM-Chronic-B-010 (HIV-1)
[31] = molecular target: HIV-1 Env of isolate MGRM-F1-010 (HIV-1)
[32] = molecular target: HIV-1 Env of isolate MGRM-D-029 (HIV-1)
[33] = molecular target: HIV-1 Env of isolate NL43 (HIV-1)
[34] = molecular target: HIV-1 Env of isolate TRO.11 (HIV-1)
[35] = molecular target: HIV-1 Env of isolate MGRM-D-028 (HIV-1)
[36] = molecular target: HIV-1 Env of isolate SF162 (HIV-1) (UniProt P19550)
[37] = molecular target: HIV-1 Env of isolate MGRM-F1-020 (HIV-1)
[38] = molecular target: HIV-1 Env of isolate MGRM-Chronic-B-024 (HIV-1)
[39] = molecular target: HIV-1 Env of isolate MGRM-Chronic-B-023 (HIV-1)
[40] = molecular target: HIV-1 Env of isolate MGRM-F1-012 (HIV-1)
[41] = molecular target: HIV-1 Env of isolate MGRM-Chronic-B-011 (HIV-1)
[42] = molecular target: HIV-1 Env of isolate MGRM-Chronic-B-017 (HIV-1)
[43] = molecular target: HIV-1 Env of isolate MGRM-D-018 (HIV-1)
[44] = molecular target: HIV-1 Env of isolate MGRM-F1-017 (HIV-1)
[45] = molecular target: HIV-1 Env of isolate MGRM-F1-014 (HIV-1)
[46] = molecular target: HIV-1 Env of isolate MGRM-F1-021 (HIV-1)
[47] = molecular target: HIV-1 Env of isolate VLGCB3 (HIV-1)
[48] = molecular target: HIV-1 Env of isolate MGRM-D-026 (HIV-1)
[49] = molecular target: HIV-1 Env of isolate MGRM-F1-006 (HIV-1)
[50] = molecular target: HIV-1 Env of isolate 93MW959 (HIV-1)
[51] = molecular target: HIV-1 Env of isolate MGRM-D-022 (HIV-1)

Chain of PGT-145 (antibody) (VH): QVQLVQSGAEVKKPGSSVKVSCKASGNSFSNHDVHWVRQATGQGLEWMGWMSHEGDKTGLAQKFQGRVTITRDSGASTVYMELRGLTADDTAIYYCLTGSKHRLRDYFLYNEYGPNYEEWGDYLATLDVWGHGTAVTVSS
Chain of PGT-145 (antibody) (VL): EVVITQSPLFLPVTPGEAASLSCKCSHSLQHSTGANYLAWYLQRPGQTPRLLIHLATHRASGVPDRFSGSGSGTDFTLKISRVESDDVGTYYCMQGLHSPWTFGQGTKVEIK

For PGT-145 (antibody), the neutralization IC50 [1] was over 50 µg/mL, the IC50, pseudovirus neutralization [2] was 0.228 µg/mL and the IC50, pseudovirus neutralization [3] was 0.224 µg/mL. It also gave an IC50, pseudovirus neutralization [4] of 14.7 µg/mL, a neutralization IC50 [5] of 0.002 µg/mL and an IC50, pseudovirus neutralization [6] of 5.88 µg/mL. The IC50, pseudovirus neutralization [7] was 17.5 µg/mL, the IC50, pseudovirus neutralization [8] was 10 µg/mL and the IC50, pseudovirus neutralization [9] was over 50 µg/mL. For the same substance, the neutralization IC50 [10] was 0.299 µg/mL, the neutralization IC50 [11] was 9.66 µg/mL and the IC50, pseudovirus neutralization [12] was 1.02 µg/mL. For the same substance, the IC50, pseudovirus neutralization [13] was over 50 µg/mL, the IC50, pseudovirus neutralization [14] was 0.402 µg/mL and the IC50, pseudovirus neutralization [15] was 0.111 µg/mL. For the same substance, the neutralization IC50 [16] was 0.013 µg/mL, the IC50, pseudovirus neutralization [17] was 2.51 µg/mL and the IC50, pseudovirus neutralization [18] was 1.76 µg/mL. The neutralization IC50 [19] was 0.002 µg/mL, the IC50, pseudovirus neutralization [20] was 3.48 µg/mL and the IC50, pseudovirus neutralization [21] was 0.009 µg/mL. The neutralization IC50 [22] was 0.005 µg/mL, the neutralization IC50 [23] was over 50 µg/mL and the neutralization IC50 [24] was over 50 µg/mL. It also gave an IC50, pseudovirus neutralization [25] of 0.361 µg/mL, a neutralization IC50 [26] of 0.915 µg/mL and an IC50, pseudovirus neutralization [27] of over 50 µg/mL. It also gave a neutralization IC50 [28] of 0.079 µg/mL, a neutralization IC50 [29] of 0.013 µg/mL and a neutralization IC50 [30] of over 50 µg/mL. It also gave an IC50, pseudovirus neutralization [31] of 3.32 µg/mL, an IC50, pseudovirus neutralization [32] of 0.03 µg/mL and a neutralization IC50 [33] of 0.006 µg/mL. For the same substance, the neutralization IC50 [34] was 0.044 µg/mL, the IC50, pseudovirus neutralization [35] was 0.721 µg/mL and the neutralization IC50 [36] was over 50 µg/mL. The IC50, pseudovirus neutralization [37] was 0.816 µg/mL, the neutralization IC50 [38] was 0.018 µg/mL and the neutralization IC50 [39] was 0.009 µg/mL. For the same substance, the IC50, pseudovirus neutralization [40] was 0.113 µg/mL, the neutralization IC50 [41] was 0.206 µg/mL and the neutralization IC50 [42] was 0.054 µg/mL. For the same substance, the IC50, pseudovirus neutralization [43] was 0.065 µg/mL, the IC50, pseudovirus neutralization [44] was 0.286 µg/mL and the IC50, pseudovirus neutralization [45] was 0.009 µg/mL. It also gave an IC50, pseudovirus neutralization [46] of 8.04 µg/mL, a neutralization IC50 [47] of over 50 µg/mL and an IC50, pseudovirus neutralization [48] of 0.41 µg/mL. For the same substance, the IC50, pseudovirus neutralization [49] was 13.6 µg/mL, the neutralization IC50 [50] was 1.2 µg/mL and the IC50, pseudovirus neutralization [51] was 34.3 µg/mL.

— patent US20200024330A1
